Reference: patent publication US20220162314A1

Target: Recombinant human CD8ab protein (extracellular domains of CD8a and CD8b with leucine zippers and tags) (human) (UniProt P01732)
Assay: ELISA: antigen coated on the plate, antibody titrated, anti-IgG (Fc)-HRP and TMB, A450

Chain of Recombinant human CD8ab protein (extracellular domains of CD8a and CD8b with leucine zippers and tags) (human) (P01732 22-182, chain 1 of 2): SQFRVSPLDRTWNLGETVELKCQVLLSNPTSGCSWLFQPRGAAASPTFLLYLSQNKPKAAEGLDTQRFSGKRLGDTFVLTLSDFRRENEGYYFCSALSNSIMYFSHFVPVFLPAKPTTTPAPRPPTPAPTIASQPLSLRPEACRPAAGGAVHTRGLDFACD
Chain of Recombinant human CD8ab protein (extracellular domains of CD8a and CD8b with leucine zippers and tags) (human) (P10966 22-170, chain 2 of 2, further chain): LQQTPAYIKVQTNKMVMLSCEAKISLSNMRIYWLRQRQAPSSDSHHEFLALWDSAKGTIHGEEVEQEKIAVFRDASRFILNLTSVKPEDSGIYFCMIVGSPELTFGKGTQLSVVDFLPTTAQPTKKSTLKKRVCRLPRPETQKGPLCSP

- EC50 (read off the curve): 0.1 nM
Substance: xhCD8a2 (clone SK1, Biolegend) (antibody)
